According to article PMC5825162:

What was measured:
[1] = molecular target: KSHV gH/gL glycoprotein complex (gH-V5/gL-Flag), wild type (Kaposi's sarcoma-associated herpesvirus (KSHV)) (UniProt F5HAK9)
[2] = molecular target: RRV gH/gL glycoprotein complex (gH-V5/gL-Flag), wild type (rhesus monkey rhadinovirus (RRV))

UniProt F5HAK9, sequence (F5HAK9 whole entry, looked up, one chain of several): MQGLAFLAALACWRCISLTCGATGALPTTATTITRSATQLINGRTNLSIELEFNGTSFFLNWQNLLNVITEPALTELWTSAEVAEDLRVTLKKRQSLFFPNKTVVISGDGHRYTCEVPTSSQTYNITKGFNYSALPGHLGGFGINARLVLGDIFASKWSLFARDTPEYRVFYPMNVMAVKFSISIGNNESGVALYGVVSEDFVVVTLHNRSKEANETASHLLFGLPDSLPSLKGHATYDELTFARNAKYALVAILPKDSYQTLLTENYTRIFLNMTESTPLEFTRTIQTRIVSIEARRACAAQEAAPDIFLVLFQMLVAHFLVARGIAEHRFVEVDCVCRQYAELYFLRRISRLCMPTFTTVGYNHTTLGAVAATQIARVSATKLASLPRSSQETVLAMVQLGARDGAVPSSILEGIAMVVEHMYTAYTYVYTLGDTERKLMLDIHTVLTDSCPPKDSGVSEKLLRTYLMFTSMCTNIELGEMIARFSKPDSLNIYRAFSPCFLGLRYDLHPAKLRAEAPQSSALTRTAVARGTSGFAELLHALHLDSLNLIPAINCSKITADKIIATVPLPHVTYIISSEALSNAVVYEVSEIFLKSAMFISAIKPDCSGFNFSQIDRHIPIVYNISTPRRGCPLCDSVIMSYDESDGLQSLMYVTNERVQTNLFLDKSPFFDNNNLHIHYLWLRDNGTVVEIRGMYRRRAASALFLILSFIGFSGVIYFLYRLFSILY

**Q.** With “soluble EphA2-Fc fusion construct comprising amino acids 25–534 of human EphA2 (from UniProt P29317-1 25-534)” as the molecule, how does the inhibition of KSHV wt infection of SLK cells (GFP, flow cytometry) after pre-incubation of the virus with soluble EphA2-Fc, dose series; gH/gL on virions [1] read?
**A.** The inhibition of KSHV wt infection of SLK cells (GFP, flow cytometry) after pre-incubation of the virus with soluble EphA2-Fc, dose series; gH/gL on virions was 90%.

B1: Recombinant, human, soluble EphB3-Fc (Fc fusion)
chain: GCRALEETLMDTKWVTSELAWTSHPESGWEEVSGYDEAMNPIRTYQVCNVRESSQNNWLRTGFIWRRDVQRVYVELKFTVRDCNSIPNIPGSCKETFNLFYYEADSDVASASSPFWMENPYVKVDTIAPDESFSRLDAGRVNTKVRSFGPLSKAGFYLAFQDQGACMSLISVRAFYKKCASTTAGFALFPETLTGAEPTSLVIAPGTCIPNAVEVSVPLKLYCNGDGEWMVPVGACTCATGHEPAAKESQCRPCPPGSYKAKQGEGPCLPCPPNSRTTSPAASICTCHNNFYRADSDSADSACTTVPSPPRGVISNVNETSLILEWSEPRDLGGRDDLLYNVICKKCHGAGGASACSRCDDNVEFVPRQLGLTERRVHISHLLAHTRYTFEVQAVNGVSGKSPLPPRYAAVNITTNQAAPSEVPTLRLHSSSGSSLTLSWAPPERPNGVILDYEMKYFEKSEGIASTVTSQMNSVQLDGLRPDARYVVQVRARTVAGYGQYSRPAEFETTSERGSGAQQLQEQLPL
**Q.** Which inhibition of RRV 26–95 wt infection of SLK cells (YFP, flow cytometry) after pre-incubation of the virus with soluble EphB3-Fc, dose series; gH/gL on virions [2] does the source give for B1 here?
**A.** The inhibition of RRV 26–95 wt infection of SLK cells (YFP, flow cytometry) after pre-incubation of the virus with soluble EphB3-Fc, dose series; gH/gL on virions was 80%.
